Measurements published in patent US20250026792A1, “SELF-ASSEMBLING PEPTIDES WITH HYALURONIC ACID BINDING DOMAINS AND METHODS OF USE THEREOF” (Northwestern University, priority 2022, published 2025).
“Also recorded” adds a separate entry of the source. Where a SMILES comes first, the peptide text is derived from it. The star is where a group is joined. Biotin = O=C1N[C@H]2[C@H](CS[C@H]2CCCCC(=O)*)N1

B1: Peptide 4 (peptide)
peptide: Biotin-LKTKIKIIVKTKSSAKLRSKLVNSHKI-OH
SMILES: CC[C@H](C)[C@H](NC(=O)[C@H](CCCCN)NC(=O)[C@H](Cc1c[nH]cn1)NC(=O)[C@H](CO)NC(=O)[C@H](CC(N)=O)NC(=O)[C@@H](NC(=O)[C@H](CC(C)C)NC(=O)[C@H](CCCCN)NC(=O)[C@H](CO)NC(=O)[C@H](CCCNC(=N)N)NC(=O)[C@H](CC(C)C)NC(=O)[C@H](CCCCN)NC(=O)[C@H](C)NC(=O)[C@H](CO)NC(=O)[C@H](CO)NC(=O)[C@H](CCCCN)NC(=O)[C@@H](NC(=O)[C@H](CCCCN)NC(=O)[C@@H](NC(=O)[C@@H](NC(=O)[C@@H](NC(=O)[C@H](CCCCN)NC(=O)[C@@H](NC(=O)[C@H](CCCCN)NC(=O)[C@@H](NC(=O)[C@H](CCCCN)NC(=O)[C@H](CC(C)C)NC(=O)CCCC[C@@H]1SC[C@@H]2NC(=O)N[C@@H]21)[C@@H](C)O)[C@@H](C)CC)[C@@H](C)CC)[C@@H](C)CC)C(C)C)[C@@H](C)O)C(C)C)C(=O)O
notes: Variant of peptide 8h-2; biotinylated synthetic peptide

Tests used:
[1] = Transmission electron microscopy (TEM) of peptide nanostructures; format: physicochemical; settings: for TEM characterization, Sodium Cacodylate Buffer (ii): 20 mM sodium cacodylate pH 7.4, 0.5% w/v; for TEM characterization, Sodium Cacodylate Buffer (ii) / TEM characterization, Phosphate Buffered Saline (i): 30 minutes sonication, 24 hrs at 37° C.; for TEM characterization, Phosphate Buffered Saline (i): PBS pH 7.4, 0.5% w/v
Experimental: The sample and stain were filter-dried in between steps. Samples were collected 24 hours at 37° C. after 30 minutes of sonication. All TEM was performed on a Philips FEI Technai Spirit G2 electron microscope. Peptides were incubated in both PBS and SC.

[2] = Concentration-dependent peptide binding to hyaluronic acid coating (biotin-streptavidin fluorescence); settings: for binding to hyaluronic acid with increasing concentrations of peptide (fluorescence intensity): 0-10 mg/ml peptide, PBS pH 7.4, 37° C., HA coating 10 μg/cm^2, FIG. 3; for HA binding, overall assessment: summary and discussion statements
Experimental: (§1) Peptides were incubated 24 hours at 37° C. Coatings (10 μg/cm^2) were previously dried overnight in milli-Q water. Overall significance was assessed using analysis of variance, with Tukey's multiple comparison post-hoc analysis between 1-scrm and experimental groups where n=4.
N-termini biotinylated peptides were added to coated plates at 0, 1, 2.5, 5 and 10 mg/ml overnight at 37° C. in phosphate buffered saline (PBS), pH 7.4, after which the plates were washed three times with PBS.

[3] = Circular dichroism (CD) of peptides; format: physicochemical; settings: 20 mM Sodium Cacodylate; for Ellipticity ratio (222 nm/208 nm) / Ellipticity 208 nm / Ellipticity 222 nm: 1.25 mg/mL; for Ellipticity 208 nm / Ellipticity 222 nm: CD data given as [θ]M×10^−3; for wavelength Minimum of CD profile: 5.0 mg/mL
Experimental: Data is presented in ellipticity ([θ]M×10^−3) as a function of spectral wavelength (λ).
Sodium cacodylate (SC), 20 mM pH 7.4, without and with 20% TFE was used to reduce phosphate related background signal and enhance detected structures. Circular dichroism (CD) data were collected in millidegrees, 0, and converted to molar ellipticity, [θ]M, and are expressed in units of deg×cm^2×dmol^−1. Scan speeds and digital integration times were 500 nm/min and 1 second, respectively. The data on the Y axis of the CD plots is [θ]M×10^−3. […] Consequently, CD signals are reported in the 190-260 nm range.

[4] = tested on: extracellular matrix (ECM) components: Collagen type I, II, III and IV, elastin, hyaluronic acid and Geltrex; assay: ECM specificity binding test, whole panel; settings: 5.0 mg/ml peptide, FIG. 4
Experimental: as §1, with “C. on collagens I-IV, elastin, hyaluronic acid, and Geltrex.” for “C.”, “pig/cm^2)” for “μg/cm^2)”, “ECM” for “1-scrm and experimental”
(§2) Hyaluronic acid, collagens I, II, III, and IV, elastin, and Geltrex were coated onto 96-well black plates (medium binding affinity) at 10 μg/cm^2 and were dried in milli-Q water at room temperature. N-termini biotinylated peptides were added to coated plates at 0, 1, 2.5, 5 and 10 mg/ml overnight at 37° C. in phosphate buffered saline (PBS), pH 7.4, after which the plates were washed three times with PBS. Fluorescent streptavidin-488 (4 μg/mL) was added to each well and incubated at 37° C. temperature for 24 hours, then thoroughly washed with PBS. The plates were read with a fluorescence microplate reader for fluorescence intensity (Ex 490 nm, Em 525 nm). All data were normalized to the background fluorescence intensity of Streptavidin-488.

elastin (bovine) = molecular target: T1, elastin (bovine) (bovine, UniProt P04985 27-747, limits assumed); assay: plate assay: biotinylated peptide (5.0 mg/ml) on dried ECM coating, streptavidin-488 fluorescence
T1 construct: Coated and dried on plates at 10 ug/cm2
T1 sequence (looked up): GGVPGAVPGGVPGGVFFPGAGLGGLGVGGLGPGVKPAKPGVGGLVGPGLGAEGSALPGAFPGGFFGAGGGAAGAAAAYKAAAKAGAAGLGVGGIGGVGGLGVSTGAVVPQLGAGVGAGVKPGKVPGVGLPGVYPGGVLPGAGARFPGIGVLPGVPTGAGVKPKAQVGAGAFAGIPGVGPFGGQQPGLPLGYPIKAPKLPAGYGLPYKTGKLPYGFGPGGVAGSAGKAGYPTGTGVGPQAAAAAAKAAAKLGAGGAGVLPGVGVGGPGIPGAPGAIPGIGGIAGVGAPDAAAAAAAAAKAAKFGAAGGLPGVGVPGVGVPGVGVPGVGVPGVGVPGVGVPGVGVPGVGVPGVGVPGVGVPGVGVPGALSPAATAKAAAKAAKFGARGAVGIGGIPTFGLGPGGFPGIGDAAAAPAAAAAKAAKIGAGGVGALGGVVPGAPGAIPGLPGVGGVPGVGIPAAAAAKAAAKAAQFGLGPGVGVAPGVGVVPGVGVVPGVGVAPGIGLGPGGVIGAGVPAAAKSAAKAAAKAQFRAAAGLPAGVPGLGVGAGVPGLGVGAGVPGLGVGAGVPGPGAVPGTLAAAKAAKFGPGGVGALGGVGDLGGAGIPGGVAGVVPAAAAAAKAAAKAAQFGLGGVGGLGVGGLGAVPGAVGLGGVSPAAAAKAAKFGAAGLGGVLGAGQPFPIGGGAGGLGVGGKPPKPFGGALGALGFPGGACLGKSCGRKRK
Experimental: as §1, with “C. on collagens I-IV, elastin, hyaluronic acid, and Geltrex.” for “C.”, “pig/cm²)” for “μg/cm^2)”, “ECM” for “1-scrm and experimental”
as §2, with “N-termini” for “Hyaluronic acid, collagens I, II, III, and IV, elastin, and Geltrex were coated onto 96-well black plates (medium binding affinity) at 10 μg/cm^2 and were dried in milli-Q water at room temperature. N-termini”

Row | Molecule | TEM characterization, Sodium Cacodylate Buffer (ii) [1] | TEM characterization, Phosphate Buffered Saline (i) [1] | binding to hyaluronic acid with increasing concentrations of peptide (fluorescence intensity) [2] | Ellipticity ratio (222 nm/208 nm) [3] | Ellipticity 208 nm [3] | Ellipticity 222 nm [3] | wavelength Minimum of CD profile [3] | Ellipticity ratio (222 nm/208 nm) ([3]; 20% TFE) | Ellipticity 208 nm ([3]; 20% TFE) | Ellipticity 222 nm ([3]; 20% TFE) | wavelength Minimum of CD profile ([3]; 20% TFE) | HA binding, overall assessment [2] | nanofiber formation in TEM, overall ([1]; both PBS and sodium cacodylate) | binding to hyaluronic acid ([2]; 10 mg/ml peptide) | peptide concentrations at which increased binding to hyaluronic acid is shown ([2]; FIG. 3) | binding to the ECMs (for 17x-3: the ECMs other than hyaluronic acid) [4] | binding result (elastin (bovine))
1 | CC[C@H](C)[C@H](NC(=O)[C@H](CC(C)C)NC(=O)[C@H](CC(N)=O)NC(=O)[C@H](CC(C)C)NC(=O)[C@H](CCC(N)=O)NC(=O)[C@H](CC(C)C)NC(=O)[C@H](CCC(N)=O)NC(=O)[C@H](CC(C)C)NC(=O)[C@H](CCCCN)NC(=O)[C@H](CCCCN)NC(=O)[C@H](CCCCN)NC(=O)[C@H](CCCCN)NC(=O)[C@H](CCCCN)NC(=O)CCCC[C@@H]1SC[C@@H]2NC(=O)N[C@@H]21)C(=O)N[C@@H](CCCCN)C(=O)N[C@@H](CCCCN)C(=O)N[C@@H](CCCCN)C(=O)N[C@H](C(=O)N[C@@H](CCC(N)=O)C(=O)N[C@H](C(=O)N[C@@H](CO)C(=O)N[C@H](C(=O)N[C@H](C(=O)N[C@H](C(=O)N[C@H](C(=O)N[C@@H](CCCNC(=N)N)C(=O)N[C@@H](CCCNC(=N)N)C(=O)N[C@@H](Cc1c[nH]cn1)C(=O)O)C(C)C)C(C)C)C(C)C)C(C)C)C(C)C)C(C)C [Peptide 1-scrm, reference compound] (Biotin-KKKKKLQLQLNLIKKKVQVSVVVVRRH-OH) | No structure or fibrils |  |  |  |  |  |  |  |  |  |  |  |  |  |  |  | 
2 | TKSKIKIVVKSKAKKLRLALVKRIKI [Peptide 6f-2, modification of mPEP35] |  | Structure, but no discernible striations | no different than the negative reference peptide | 0.52 | −97.6 | −50.6 | 221 nm | 0.84 | −306 | −257 | 221 nm |  |  |  |  |  | 
3 | TKTKIKIIVKLKSKAKLRIKLVKRHKS [Peptide 8h-2, modification of mPEP35] | No discernible structure. | No discernible structure. |  | 0.42 | −135 | −57.3 | 224 nm | 0.88 | −283 | −249 | 222-224 nm | proficient and specific binders |  |  |  |  | 
4 | CC[C@H](C)[C@H](NC(=O)[C@H](CCCCN)NC(=O)[C@H](CCC(N)=O)NC(=O)[C@H](CCCCN)NC(=O)[C@H](CC(C)C)NC(=O)CCCC[C@@H]1SC[C@@H]2NC(=O)N[C@@H]21)C(=O)N[C@@H](CCCCN)C(=O)N[C@@H](Cc1c[nH]cn1)C(=O)N[C@H](C(=O)N[C@H](C(=O)N[C@@H](CCCCN)C(=O)N[C@@H](CC(C)C)C(=O)N[C@@H](CCCCN)C(=O)N[C@H](C(=O)N[C@H](C(=O)N[C@H](C(=O)N[C@@H](CCCCN)C(=O)N[C@@H](CC(C)C)C(=O)N[C@@H](CCCNC(=N)N)C(=O)N[C@@H](CO)C(=O)N[C@@H](CCC(N)=O)C(=O)N[C@@H](CC(C)C)C(=O)N[C@H](C(=O)N[C@@H](CCCCN)C(=O)N[C@@H](CCCNC(=N)N)C(=O)N[C@@H](CCCCN)C(=O)N[C@@H](CCC(N)=O)C(=O)N[C@@H](CC(N)=O)C(=O)O)C(C)C)C(C)C)C(C)C)C(C)C)C(C)C)C(C)C [mPEP35, reference compound] (Biotin-LKQKIKHVVKLKVVVKLRSQLVKRKQN-OH) | no fibers or structure can be observed; also recorded: No structure or fibrils |  |  |  |  |  |  |  |  |  |  |  |  |  |  |  | 
5 | ASNLTKAAKSLKVRVIKKTKQKQVLKVL [2nd de novo, five B(X7)B domains] |  | Structure, but no discernible striations |  | 0.42 | −115 | −48.5 | 224-225 nm | 0.90 | −371 | −333 | 221-222 nm |  |  |  |  |  | 
6 | TQLRNKYTFLARARNALAVRTKQNIKS [BHP3, designed from 42 residue peptide BH-P] |  | form fibers with many striations that form larger fibers and the larger fibers tend to form a mesh network | increases dramatically | 0.79 | −88.4 | −70.1 | 226 nm |  |  |  | 226 nm | HA specific and robust binders | consistent nanofibers; also recorded: predominantly form fibers with striations and furthermore form a mesh network | bound significantly | 10 mg/mL | did not show significant binding | 
7 | LKLKSSHSIKLKVKSKQRSALVSRQKA [Peptide 6b, mPEP35 variant] |  | Structure with striations |  |  |  |  | 227 nm | 0.87 | −229 | −199 | 224 nm |  |  |  |  |  | 
8 | B1 |  |  |  |  |  |  |  |  |  |  |  |  |  |  |  |  | binds
